Here are results for one molecule from paper PMC13635227 (Nature Communications, 2026).

The star is where a group is joined. Biotin = O=C1N[C@H]2[C@H](CS[C@H]2CCCCC(=O)*)N1; AEEA = NCCOCCOCC(=O)O

Holding throughout (test): BLI
Assay [1] addresses T1, Biotin-PEG-EAEEPSLLKKLLLAPANTQ-NH2 (LXXLL motif peptide, amino acids 135-153 of PPAR coactivator 1α, PGC-1α) (SMILES …).
T1 peptide: {Biotin-AEEA}-EAEEPSLLKKLLLAPANTQ-NH2

Assay [2] has as its target T1, Biotin-PEG-EAEEPSLLKKLLLAPANTQ-NH2 ….
Assay [3] has the same target.

B1: Full-length mouse PPAR-α (peroxisome proliferator-activated receptor α), tag-free (natural protein, UniProt P23204 1-468, looked up)
chain: MVDTESPICPLSPLEADDLESPLSEEFLQEMGNIQEISQSIGEESSGSFGFADYQYLGSCPGSEGSVITDTLSPASSPSSVSCPVIPASTDESPGSALNIECRICGDKASGYHYGVHACEGCKGFFRRTIRLKLVYDKCDRSCKIQKKNRNKCQYCRFHKCLSVGMSHNAIRFGRMPRSEKAKLKAEILTCEHDLKDSETADLKSLGKRIHEAYLKNFNMNKVKARVILAGKTSNNPPFVIHDMETLCMAEKTLVAKMVANGVEDKEAEVRFFHCCQCMSVETVTELTEFAKAIPGFANLDLNDQVTLLKYGVYEAIFTMLSSLMNKDGMLIAYGNGFITREFLKNLRKPFCDIMEPKFDFAMKFNALELDDSDISLFVAAIICCGDRPGLLNIGYIEKLQEGIVHVLKLHLQSNHPDDTFLFPKLLQKMVDLRQLVTEHAQLVQVIKKTESDAALHPLLQEIYRDMY
On to B1, for which, in assay [1], the “EC50 of ciprofibrate (small-molecule ligand of PPAR-α) in promoting the binding” value came to 5.4 µM. In assay [2], the “EC50 of palmitic acid (small-molecule ligand of PPAR-α) in promoting the binding” value is 190 µM. The “EC50 of TFA (small-molecule ligand of PPAR-α) in promoting the binding” value in assay [3] was found to be 4900 µM.
